Data published in a protein production outcome set (Wang et al. 2014).

Assay: label from the status in PepcDB records

**Q.** For “MAYDGLFTKKMVESLQFLTTGRVHKINQPDNDTILMVVRQNRQNHQLLLSIHPNFSRLQLTTKKYDNPFNPPMFARVFRKHLEGGIIESIKQIGNDRRIEIDIKSKDEIGDTIYRTVILEIMGKHSNLILVDENRKIIEGFKHLTPNTNHYRTVMPGFNYEAPPTQHKINPYDITGAEVLKYIDFNAGNIAKQLLNQFEGFSPLITNEIVSRRQFMTSSTLPEAFDEVMAETKLPPTPIFHKNHETGKEDFYFIKLNQFNDDTVTYDSLNDLLDRFYDARGERERVKQRANDLVRFVQQQLHKYQNKLAKLIEEYEQSKNKDTEQLYGELITANIYRIKQGDKEVTALNYYTNEEVVIPLNPTKSPSANAQYYYKQYNRMKTRERELQHQIQLTKDNIDYFSTIEQQLHHISVHDIDEIRDELAEQGFMKQRKNQTKKKKAQ”, which protein production is on record?
**A.** not failed

**Q.** For “MCYAASKLWNVCNYERHHYKELGLEKYPDWYYQKKAHKGDLWYRQLPSQTAQETCKQLDKAWKSFYVLKKTGGIKEPNPPRFKQDNIPVTYMQMGIRHEKGSDQLRLSLPRDLKSYMEETYGIHEKFLYLENKIFRNMDHIKQLRIYPPENGTCELIVIYEIEEPEQLSQNGHYLSVDLGLHNLMTCYDSGNGRTFILGRKYLSLERYFHKEIARVQSVWYAQQSERGIKYPKSSKHIQRLYRKKQNAVKDYLHKTTRWIAEYCRKEDIRCVVVGDIRNIRKEKDMGHKTNQKFHGLPYNRLYIMLEYKLKLYGIQLIKQEESYTSQCSPLSPEVSKRHAEASNRKERGMYITDGVRFNADAVGAFNILRKHLSVSGKQKEMSVTGLKTPEIIKVAA”, which protein production is on record?
**A.** failed

**Q.** For “MRIGHGFDVHAFGGEGPIIIGGVRIPYEKGLLAHSDGDVALHALTDALLGAAALGDIGKLFPDTDPAFKGADSRELLREAWRRIQAKGYTLGNVDVTIIAQAPKMLPHIPQMRVFIAEDLGCHMDDVNVKATTTEKLGFTGRGEGIACEAVALLIKATK”, which protein production is on record?
**A.** not failed

**Q.** With “MGNVLFLVSLSLIWVMLLYHMFLMQGGFRHYMTFERNIPKWKENVKDLPKVSVLIPAHNEEVVIRQTLKAMVNLYYPKDRLEIIVVNDNSSDRTGDIVDEFSTQYGFIKMVVTKPPHAGKGKSSALNCGFAESNGDVICVYDADNTPEKMAVYYLVLGLMNDQKAGAVVGKFRVINAAKTLLTKFINIETICFQWMAQGGRWKWFKIATIPGTNFAIRRSIIEQLGGWDDKALAEDTELTIRVYNLGYHIRFFPAAVTWEQEPETWKVWWRQRTRWARGNQYVVLKFLAQFFKLKRKRIIFDLFYFFFTYFLFFFGVIMSNAIFVINLFYNLHLSFGFLSIILWVLAFFLFMTKVMITLSIEKTEMNRQNFFIVFLMYFTYSQAWIVLVIYSLFVEIKHRLFKQHGTKQNDTIKRKAGDFFEIYHHMSGKLLADHGDGTSGCSQRRYSRRLDPGGKQPGTSQAASAHKRSLDFIRGKRQRRADVSNTGGRLLYPSAAYT” as the sequence, how does the protein production read?
**A.** failed

**Q.** For “MKIGIIGAGFVARAIAKLALQNGHQVMLSNSRDPQSLFSLRPMIGCDIGTATQAALFGDIIVIAVPFTAIDKLPEQALQGKSVIDAVNYYTERDGKVAALDTRSTTTSELLAGYLPGAKITKAFNAITMTQLERDGLPAGSAHRRALPLAGDHEQEKTIVAELYDAFGFDVVDAGKLSEGWRFERNMPSYCVRMTKAELTTALALSSRLEHHHHHH”, which protein production is on record?
**A.** not failed

**Q.** Which protein production does the source give for “MTHTIIHPSSSKSSFESPAMAYRINCQQGQTHLLWVTLRLTAPQTDVLDLHLPVWTPGSYLVREYARHLQDFTAATADGTPLEWWKCTKNQWQVACTPGLELKVRYAIYAHELSVRTSHFDRSHAYFNPAAVCLYVPQYRDQPLTITIEAPPDWRVTTPLEGWGEDGRTFWAPNYDLLVDSPFEVGTHGIYTFEVDGKPHELAVWGKGNFDPKRAIADIQRIIETEASFFGGLPYDRYVFILHLTHKGYGGLEHLNSCSLIFHRFGFQQPEQYCRFLCLVAHEFFHLWNIKRIRPQAFEVFDYDSENYTTSLWFVEGVTSYFDQLIPLWAGLFDAPTYLKLLSDSLNRYFHTPGRFVQSLSAASFDAWIKLYRPDENSINSQMSYYLKGELVALLLDLRIRLNFNHQRSLLDVLRRLWQRYCETGEGYTPDELWQTIETVADENLSTWREQFIEGTVELPLQEWLTKVGLELVPQDALPYTGLQFQQEQGSLQIKAVLRDSPAEQAGLGAGDEIIALNGWRVKAQDWSERLREYTAGETIHLTWFHDQQLQSGDLILGEPQPHYRLQCRADATPSQRAHLEAWLGATATQL” here?
**A.** failed

**Q.** Which protein production does the source give for “MPELSVILAGFGDALAPINLLFILFGVALGQFVGAVPGIGPVMATAIAIPFTFGMDPLTGIAFLVGVNKGGLVGGAIPAVLLNTPGTPDAAATALDGYPLAKQGKPLKATKMALFSSITGDTFSDIVLITVSAPMAILALRMGPVEVLGLMLLAFAVIAGLMGQSLVKGVVAIALGLMAAMVGTDPEHGSPRLIFGNYELYDGLPLASVAIGMLAISELLKRLSETRGTVRPAITLPRNQPRADRSVSWAEYWGCRFTMLRGAVIGTILGALPGIGSTAAAFMSYASARQASKEPESFGKGSLHGIAASESANSSVMGANMIPMLTLGIPGSVSAALIISAFMIHGIQPGPFLFSQQGQLVYGLFGAMIIANLINLWVGQLGLRFWVRVVSAPEPFIFASALLMCFVGVALASGGLFGIGVMLVFALLAYVMSAFGISVVVFIIAFFLGPRLEISLSQTLALLNGQPQKLLDYPFALVLMALALVTAVALARRRDTESETR” here?
**A.** failed

**Q.** With “MPGRKRKLAAKTAELAPEAGEGSESTSLVGSADASASTAAGVAHTEQQEMPSGGLHESFLESIPPAASFLEELAWVESLASPSYVAYLCQMRRFDDVVAQRRLTTLQRWRQDPAYRQHVSQPIALFFLEQLCSAEFREALRHPAVAALYERQVDLYRRCYGNLLNTGESRVLR” as the sequence, how does the protein production read?
**A.** not failed

**Q.** With “MTDREWPEYPNQSGGETVTGPESAQEEAASERGWEADPPSPASEECQSEEGSNWERTAQEAEEEVPGGQRGEDLGTLGQAQELQEAAPFFQEEGSEPSQTTETSGWKPGMESSEDSREEPDLPAESPESSGQELQEAAALSPEETQVPFQTENAWEPGAERPENPDGGESQEPVAERPSAQPYDQSPAFSRPAPQAPPPVWNPGWQASYRQAPQNYPYGQGQYQGGWHPQQRQVPPPYYGGTPYQAPNPYQNQAPYGYPGQAARNQGQPGYQESRWYPQQPAQPARTGSVPPPSQPPQKEAGELPDAKPPEKKRMNKKTKAFLWVIGAVLVLLGAAMVLYSVGLTSGWFGGETAEPPQASSSTPAPEDDQKLLEIEEIPQDGMMTPNQVYEKVKHSVVAVVTYGQGSDLTDSPISSGSGIVFSEDGYIVTNSHVIGDSNQYPVKMVFTGQDENEEDQEYPAQIVGYDKRTDIAVLKIDAAGLTPAEFADSDQLKVGDTVLSLGNPGVAGENFTNTLTKGMVSAVNRTVTMSSINMQYIQTDAAINPGSSGGALLNLYGQVVGINAAKITTTEIEGICFAIPTNIAKDVINDIVKNGYVSDRVRLGVTIRGLSSYEAEMYNVPQGLVIVGFSSDSEIPSKGAEIGDIITAINGVNTTSSNTLYNELEKFKAGEKVKLTIYRQASGSQRARTFEIEVTLLEARGETQSAVTPTPEAP” as the sequence, how does the protein production read?
**A.** failed

**Q.** For “LTRWGAFRNITLPLALPGLAAAAMFTFVMSWNEVFVASILTLKNRTLPAQILSIVAGAAGGAAPAYYKFAAAFIMTLPAMLFIFFARRYLVTMWGITL”, which protein production is on record?
**A.** failed

**Q.** With “AGSATITYSVLEETDRGSLVGNLAKDLGLSLRELITRGAQILSKGNKQLLQLEQKSGNLLLKEKLDREELCGSTNPCILHFQVLLKSPVQFIQGEIQLQDVNDHAPEFMEDE” as the sequence, how does the protein production read?
**A.** not failed

**Q.** Which protein production does the source give for “MTTSKVTYQGDLRTSAIHLQSNNEIITDAPVDNQGKGEAFSPTDLLATSLASCMLTIIGIKARDMEIDIAGTTAEVTKVMAADPRRVSEVHIAITFNQELDDKTQKIFYNTALTCPVAKSIHPDIFQKVIIHSKSY” here?
**A.** not failed

**Q.** For “MLAALFSIAAVFGFHAEDEPYIVTLPWYELFSSAAKAVAGTIHNPFGLFGARVSVFFIRVLLGYPSVMPLFGFLVLGWHLFRAKPLGPGLFFLVYTLLMALDLSAMFGLSMLPLADLMSGATGRMMASFLSTVIGYPGAWALTAIIAAVLTFYMGRDFIVDTIAGVSGFFGKLLATVQAIRAERHRKRREKEEMRVRKKAERMAAVLEKEQRKRDKKAQRARKAGDASKQKAAPFENSPETPAPVMDVEPAPPLLNPAVSEPVVIPAEVEEIRTPEPAPVRPEEGPEMIIKPGVQEAEADLDERALKVRTHDHVKYRFPSIDLLRRPKDEDESYDERHLAETKDRLLEKLRIYKIDVIRIATTVGPRVALFELELAPEVKISRIKSLENDLAMAMASSSGGIRIIAPIPGKNAIGVEIPISKPRPVVMRSVLQVEKFKNNSMALPIVLGKSISNEVIVDDLAAMPHLLIAGATGAGKSVAINVLLTSLLYSKKPDEVKFVLIDPKRVELKPYKLLKDHFLPKIPGMEEQIIVTDPQKAVSALRSVVREMEHRYELLEQCGVRNIGEYNRKMKDEAMFYLVVVVDELADLMITAGREVEEPITRLAQMARAVGIHLIVATQRPSVDIITGIIKANFPSRIAFQVASKVDSRTILDVSGAEQLLGSGDMLFQSAKMSKPQRIQCPYISLSEVDAITEFIGQQPPLRAECMLPEPPSSSGNGSSSGFDQDRGRRDSMFEEAARLVVMHQQASVSLLQRRLRLGFSRAGRVMDQLEQSGIVSAGDGSKPREVLVKNEDSLELLLRNLD”, which protein production is on record?
**A.** failed

**Q.** For “MTEPNNPHRPDEAGVSGWPSEAGRDPYGQPSNPYQMPAPYSSGLPVAENHRRPYVDFGLAIKLFFKNYAVFRGRASRSEYWWTVLFNFIIAVAIQALMPILQGVGLMSAITSNSTTEFSAMSTSGVIFTMLPLAWLLAIIIPCLALTVRRLHDVNHSGWWVMAPTLCGIVSAIMMILAFVSAAANDGKPSMALLTIGIVLFVAIFVVNIILLIFVISDSHPEAWKKYDKEPLPVTE”, which protein production is on record?
**A.** failed

**Q.** With “MNEQPAACRIKVEALGAGFAPAAEQWAERLGLALQVDEAEFALQVGEQGLQLQQLGPDAPGPVRVDFVEGGAAHRRLYGGGSGQMIAKAVGVAQGVRPRVLDATAGLGKDGFVLATLGCEMSLIERQPLIGALLEDGLARAAQDAEVGPIVARMHLLKGNSIELMRNWQGEPPQVIYLDPMFPHREKSALVKKEMRLFRPLVGDDNDAPALLAAALALASHRVVVKRPRKAPCIEGPKPSHGLEGKSSRYDIYPKKALKALEHHHHHH” as the sequence, how does the protein production read?
**A.** failed

**Q.** For “MVSYDRHINHVRLFVDGILDSSFLTEGITKTNDSPIYIGGAPYSVDSCDFPFLLDELKIYNLSIGTDQIQSEASASLSGIEPSFIYFGCFHCDMNTAILSCPNNYHLCNKMELYIGVYNVLRKFSLDVNNIILPYSSESNLGIGICCTDI”, which protein production is on record?
**A.** failed

**Q.** For “MELDGKAPSHRNLNVQTWSTAEGAKVLFVEARELPMFDLRLIFAAGSSQDGNAPGVALLTNAMLNEGVAGKDVGAIAQGFEGLGADFGNGAYKDMAVASLRSLSAVDKREPALKLFAEVVGKPTFPADSLARIKNQMLAGFEYQKQNPGKLASLELMKRLYGTHPYAHASDGDAKSIPPITLAQLKAFHAKAYAAGNVVIALVGDLSRSDAEAIAAQVSAALPKGPALAKIEQPAEPKASIGHIEFPSSQTSLMLAQLGIDRDDPDYAAVSLGNQILGGGGFGTRLMSEVREKRGLTYGVYSGFTPMQARGPFMINLQTRAEMSEGTLKLVQDVFAEYLKNGPTQKELDDAKRELAGSFPLSTASNADIVGQLGAMGFYNLPLSYLEDFMRQSQELTVEQVKAAMNKHLNVDKMVIVSAGPTVAQKPLEHHHHHH”, which protein production is on record?
**A.** not failed

**Q.** For “RTSYLEFNQRDKNSPYNNVNLRKAISAAIDRNALVDKILGDGSVVATGLIPEGMSYSPTDDTDFADENKKIVEYSPEKAKEYWAKAKKELGITTLKMDIVADDVDSTKKLAEYIQGTLKDTLEGIDVTVSPVPFSVRIDRGSRGDFETILGGWAADYADPSSFLDLFVTGNNYNRGRFSSKAYDELIEASATRDASDPEKRWEDMVKAEKLLIGEETALAPLYQKA”, which protein production is on record?
**A.** failed

**Q.** With “MEVKMPFVVFVKRSVRFPGKHSYMIGGKSLLEIIVSKLSNIGKVYVFTKDKDIICNGCSIEFDTTNGIITDSVLAAIDKFGTFFAVAGDMPLIKPELVSKMLSQYKGSPLFPRHMDGMLEPLFGIYTEDLYNALKEYLDKGGESLHAFLLTQPLQYYDIGSDDEVNFININYKSDIEKYRDLLVQLLEHHHHHH” as the sequence, how does the protein production read?
**A.** not failed
